From paper PMC8692152, “Cellular Id1 inhibits hepatitis B virus transcription by interacting with the novel covalently closed circular DNA-binding protein E2F4”

How the values were obtained:
E2F4 1-180 [1] = biological target: T1, E2F4 1-180 (UniProt Q16254 1-180); assay: SPR; random control DNA; SPR: Biacore X100, SA chip, DNA in PBS (137 mM NaCl, 2.7 mM KCl, 10 mM Na2HPO4, 2 mM KH2PO4, pH 7.4), protein 10-320 nM (Fig. S3D legend prints mM); ITC: 250 mM NaCl, 50 mM Tris-HCl pH 7.5; EMSA: Beyotime kit, 6% native gel; temperatures not stated; settings: protein: recombinant; tags: His (pET28a); chain copies: 2; label: 5'-biotin on sense strand; blunt
E2F4 1-88 [2] = biological target: T2, E2F4 1-88 (UniProt Q16254 1-88); assay: ITC; SPR: Biacore X100, SA chip, DNA in PBS (137 mM NaCl, 2.7 mM KCl, 10 mM Na2HPO4, 2 mM KH2PO4, pH 7.4), protein 10-320 nM (Fig. S3D legend prints mM); ITC: 250 mM NaCl, 50 mM Tris-HCl pH 7.5; EMSA: Beyotime kit, 6% native gel; temperatures not stated; settings: protein: recombinant; tags: GST removed with 3C protease (ITC methods); pET28 His construct also described; chain copies: 2; blunt
E2F4 1-180 [3] = biological target: T1, E2F4 1-180; assay: SPR; SPR: Biacore X100, SA chip, DNA in PBS (137 mM NaCl, 2.7 mM KCl, 10 mM Na2HPO4, 2 mM KH2PO4, pH 7.4), protein 10-320 nM (Fig. S3D legend prints mM); ITC: 250 mM NaCl, 50 mM Tris-HCl pH 7.5; EMSA: Beyotime kit, 6% native gel; temperatures not stated; settings: protein: recombinant; tags: His (pET28a); chain copies: 2; label: 5'-biotin on sense strand; blunt
E2F4 1-88 [4] = biological target: T2, E2F4 1-88; assay: ITC; error exceeds value; SPR: Biacore X100, SA chip, DNA in PBS (137 mM NaCl, 2.7 mM KCl, 10 mM Na2HPO4, 2 mM KH2PO4, pH 7.4), protein 10-320 nM (Fig. S3D legend prints mM); ITC: 250 mM NaCl, 50 mM Tris-HCl pH 7.5; EMSA: Beyotime kit, 6% native gel; temperatures not stated; settings: protein: recombinant; tags: GST removed with 3C protease (ITC methods); pET28 His construct also described; chain copies: 2; blunt

T1 sequence (Q16254 1-180): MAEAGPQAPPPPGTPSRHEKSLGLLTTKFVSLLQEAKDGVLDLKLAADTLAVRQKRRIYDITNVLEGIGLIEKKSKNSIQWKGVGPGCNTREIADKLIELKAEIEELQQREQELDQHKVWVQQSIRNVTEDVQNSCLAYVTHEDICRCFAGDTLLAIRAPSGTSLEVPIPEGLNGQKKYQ
T2 sequence (Q16254 1-88): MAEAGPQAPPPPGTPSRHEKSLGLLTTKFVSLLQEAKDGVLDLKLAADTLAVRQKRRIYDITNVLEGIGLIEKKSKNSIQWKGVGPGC

B1: Control-DNA-biotin (SPR) (dsDNA)
DNA 1: ATGATGTCACCACAAGAAGT
DNA 2: ACTTCTTGTGGTGACATCAT
Kd (E2F4 1-180 [1]): 0.136 µM

B2: Cp2 (ITC) (dsDNA)
DNA 1: TTAGATTAAAGGTCTTTGT
DNA 2: ACAAAGACCTTTAATCTAA
Kd (E2F4 1-88 [2]): 10.3 ± 4.37 µM

B3: Biotin-Cp2 (SPR) (dsDNA)
DNA 1: TTAGATTAAAGGTCTTTGT
DNA 2: ACAAAGACCTTTAATCTAA
Kd (E2F4 1-180 [3]): 0.0878 µM

B4: Cp2-mut (ITC) (dsDNA)
DNA 1: TTAGATTAAATTTCTTTGT
DNA 2: ACAAAGAAATTTAATCTAA
Kd (E2F4 1-88 [4]): 19.6 ± 31.2 µM
